Earlier results in publication PMC2289845.
pKd: −log10 of the molar value.

Target: KIX KIX (UniProt P45481)
Chain of UniProt P45481 (P45481 586-665): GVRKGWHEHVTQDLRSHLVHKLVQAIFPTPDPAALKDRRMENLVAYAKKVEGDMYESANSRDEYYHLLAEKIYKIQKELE

pKd: 5.89
Substance: pKID KID (from UniProt P15337)
